EC50 of GLP-1R activation (460/530 ratio, GeneBLAzer GLP-1R-CRE-bla CHO-K1 reporter cells) data for two substances are collected here from patent US20260174822A1.

In the assay the target is GLP-1R on GeneBLAzer GLP-1R-CRE-bla CHO-K1 cells. The assay is described as follows: cell-based or functional assay.

As for GLP-1-His protein (peptide), the EC50 of GLP-1R activation (460/530 ratio, GeneBLAzer GLP-1R-CRE-bla CHO-K1 reporter cells) came to 0.193 µM. The figure for GLP-1-RFRS-His protein (peptide) is 0.0359 µM.
